Reference: patent publication US20210347873A1 (SHANGHAI PHARMAEXPLORER, published 2021)

What was measured:
[1] = target: biotinylated hBLyS-ECD (human) (UniProt Q9Y275); experiment: ELISA on captured biotinylated hBLyS-ECD; control antibody 13.3 nM
[2] = target: biotinylated hBLyS-ECD (human) (UniProt Q9Y275); experiment: ELISA on captured biotinylated hBLyS-ECD; control antibody 0.107 nM
[3] = target: biotinylated hBLyS-ECD (human) (UniProt Q9Y275); experiment: ELISA on captured biotinylated hBLyS-ECD; control antibody 0.00427 nM
[4] = target: biotinylated hBLyS-ECD (human) (UniProt Q9Y275); experiment: ELISA on captured biotinylated hBLyS-ECD; control antibody 0 nM (background)
[5] = target: biotinylated hBLyS-ECD (human) (UniProt Q9Y275); experiment: BAFF R-coated ELISA, biotinylated hBLyS-ECD bound in presence of control antibody 4 nM
[6] = target: biotinylated hBLyS-ECD (human) (UniProt Q9Y275); experiment: as above; remark: listed apart in the source
[7] = target: biotinylated hBLyS-ECD (human) (UniProt Q9Y275); experiment: BAFF R-coated ELISA, biotinylated hBLyS-ECD bound in presence of control antibody 20 nM
[8] = target: biotinylated hBLyS-ECD (human) (UniProt Q9Y275); experiment: BAFF R-coated ELISA, biotinylated hBLyS-ECD bound in presence of control antibody 0.8 nM
[9] = target: biotinylated hBLyS-ECD (human) (UniProt Q9Y275); experiment: BAFF R-coated ELISA, biotinylated hBLyS-ECD bound in presence of control antibody 0.0064 nM

biotinylated hBLyS-ECD (human), sequence (Q9Y275 134-285): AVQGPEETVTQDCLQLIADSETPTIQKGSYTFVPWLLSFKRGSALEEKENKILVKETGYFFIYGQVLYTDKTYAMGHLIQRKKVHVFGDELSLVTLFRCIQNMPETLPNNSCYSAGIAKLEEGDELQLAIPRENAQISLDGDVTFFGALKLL

## hIgG Control (antibody)
[1]
  OD450 nm: 0.103 OD450 nm
[2]
  OD450 nm: 0.0662 OD450 nm
[3]
  OD450 nm: 0.0798 OD450 nm
[4]
  OD450 nm: 0.0731 OD450 nm
[5]
  OD450 nm: 2.15 OD450 nm
[6]
  OD450 nm: 1.87 OD450 nm
[7]
  OD450 nm: 1.91 OD450 nm
[8]
  OD450 nm: 1.85 OD450 nm
[9]
  OD450 nm: 2.01 OD450 nm
